Tests used:
[1] = molecular target: T1, murine B7-H3 (mouse, UniProt Q8VE98 29-316); assay: flow cytometry on Raji clones expressing mB7-H3
T1 construct: whole, on cells; also called mB7-H3; mouse B7-H3
T1 sequence (looked up): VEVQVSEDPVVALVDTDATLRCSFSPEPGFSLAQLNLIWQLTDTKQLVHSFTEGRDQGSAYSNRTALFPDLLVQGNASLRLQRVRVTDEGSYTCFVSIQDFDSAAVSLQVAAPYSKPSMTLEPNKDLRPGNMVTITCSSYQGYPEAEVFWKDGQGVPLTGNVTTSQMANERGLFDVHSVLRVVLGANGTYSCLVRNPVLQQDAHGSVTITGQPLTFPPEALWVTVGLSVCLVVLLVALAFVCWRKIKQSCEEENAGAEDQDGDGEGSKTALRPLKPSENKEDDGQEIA

[2] = molecular target: T2, human 4Ig-B7-H3 (human, UniProt Q5ZPR3 29-534); assay: flow cytometry on Raji clones expressing 4Ig-hB7-H3
T2 construct: whole, on cells; also called 4Ig-hB7-H3; Raji-4IgB7-H3
T2 sequence (looked up): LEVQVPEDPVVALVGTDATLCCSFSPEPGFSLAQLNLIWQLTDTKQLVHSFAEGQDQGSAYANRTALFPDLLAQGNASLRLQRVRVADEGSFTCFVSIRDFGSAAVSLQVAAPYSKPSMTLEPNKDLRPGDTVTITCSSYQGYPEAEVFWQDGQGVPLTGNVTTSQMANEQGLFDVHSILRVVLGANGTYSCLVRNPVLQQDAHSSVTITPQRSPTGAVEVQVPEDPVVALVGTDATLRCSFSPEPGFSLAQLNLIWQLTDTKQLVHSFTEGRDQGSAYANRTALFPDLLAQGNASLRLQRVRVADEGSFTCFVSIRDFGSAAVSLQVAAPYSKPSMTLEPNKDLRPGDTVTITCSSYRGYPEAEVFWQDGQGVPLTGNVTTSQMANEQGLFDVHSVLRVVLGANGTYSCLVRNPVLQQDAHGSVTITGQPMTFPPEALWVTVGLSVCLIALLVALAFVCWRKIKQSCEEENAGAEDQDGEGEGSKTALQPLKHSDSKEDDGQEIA

B1: anti-B7-H3 mAb 376.96 (antibody, V domains shown)
VH: EVQLVESGGGLVKPGGSLKLSCEASRFTFSSYAMSWVRQTPEKRLEWVAAISGGGRYTYYPDSMKGRFTISRDNAKNFLYLQMSSLRSEDTAMYYCARHYDGYLDYWGQGTTLTVSS
VL: DIVMTQSHKFMSTSIGARVSITCKASQDVRTAVAWYQQKPGQSPKLLIYSASYRYTGVPDRFTGSGSGTDFTFTISSVQAEDLAVYYCQQHYGTPPWTFGGGTKLEIK
notes: The residue ranges are my derivation
- binding result [1]: binds
- binding result [2]: binds

— patent US20180371053A1 (UNIVERSITY OF NORTH CAROLINA AT CHAPEL HILL, published 2018)
